# B1: dynamin2-EGFP (natural protein, human (endogenous in SUM159), UniProt P50570 1-870, looked up)
# chain: MGNRGMEELIPLVNKLQDAFSSIGQSCHLDLPQIAVVGGQSAGKSSVLENFVGRDFLPRGSGIVTRRPLILQLIFSKTEHAEFLHCKSKKFTDFDEVRQEIEAETDRVTGTNKGISPVPINLRVYSPHVLNLTLIDLPGITKVPVGDQPPDIEYQIKDMILQFISRESSLILAVTPANMDLANSDALKLAKEVDPQGLRTIGVITKLDLMDEGTDARDVLENKLLPLRRGYIGVVNRSQKDIEGKKDIRAALAAERKFFLSHPAYRHMADRMGTPHLQKTLNQQLTNHIRESLPALRSKLQSQLLSLEKEVEEYKNFRPDDPTRKTKALLQMVQQFGVDFEKRIEGSGDQVDTLELSGGARINRIFHERFPFELVKMEFDEKDLRREISYAIKNIHGVRTGLFTPDLAFEAIVKKQVVKLKEPCLKCVDLVIQELINTVRQCTSKLSSYPRLREETERIVTTYIREREGRTKDQILLLIDIEQSYINTNHEDFIGFANAQQRSTQLNKKRAIPNQGEILVIRRGWLTINNISLMKGGSKEYWFVLTAESLSWYKDEEEKEKKYMLPLDNLKIRDVEKGFMSNKHVFAIFNTEQRNVYKDLRQIELACDSQEDVDSWKASFLRAGVYPEKDQAENEDGAQENTFSMDPQLERQVETIRNLVDSYVAIINKSIRDLMPKTIMHLMINNTKAFIHHELLAYLYSSADQSSLMEESADQAQRRDDMLRMYHALKEALNIIGDISTSTVSTPVPPPVDDTWLQSASSHSPTPQRRPVSSIHPPGRPPAVRGPTPGPPLIPVPVGAAASFSAPPIPSRPGPQSVFANSDLFPAPPQIPSRPVRIPPGIPPGVPSRRPPAAPSRPTIIRPAEPSLLD
# Target: the molecule itself
# Experiment: single-molecule TIRF step-intensity counting in live cells
protein,measurement,value
B1,stoichiometry N,2
